B1: biotinylated LIN-42 CK1BD + Tail (residues 402–598), wild type (domain or fragment, C. elegans)
chain: GAMDPEFLSYTQINCLENVHRLLKSQSRPESPAKQDEPFDEKKYPPQTPLTREALTLHTKRFEDEYKDTWCRRLKRLSDDVPSSPPAKRTTPIHWTSSSQNHYRTMAPAPPPPPGKNYQITYTPLDDLTDQKSTNTKSDVENVAYPISGSKFSTPMRLSIDGLLPRGATSTGGASPTSGTNSPPVFPKTSSSSSLLMLRDSQN
modifications: biotin on the N-terminus (Sortase A reaction of biotin-LPETGG with the N-terminal G of GAMDPEF)
notes: N-terminal vector artifact left after TEV cleavage; its first G is joined to the sortase peptide; LIN-42, C. elegans, residues 402-598 (CK1BD and C-terminal tail); After the sortase reaction the N-terminus should read biotin-LPET-GAMDPEF-; also called biotinylated LIN-42 CK1BD + Tail WT; wild-type LIN-42 protein; not shown: His-NusA, N-terminal, cleaved; biotin-LPETGG sortase peptide, N-terminal, …
B2: biotinylated LIN-42 CK1BD-∆A + Tail (residues 434–598) (domain or fragment, C. elegans)
chain: GAMDPEFDEKKYPPQTPLTREALTLHTKRFEDEYKDTWCRRLKRLSDDVPSSPPAKRTTPIHWTSSSQNHYRTMAPAPPPPPGKNYQITYTPLDDLTDQKSTNTKSDVENVAYPISGSKFSTPMRLSIDGLLPRGATSTGGASPTSGTNSPPVFPKTSSSSSLLMLRDSQN
modifications: biotin on the N-terminus (Sortase A reaction of biotin-LPETGG with the N-terminal G of GAMDPEF)
notes: N-terminal vector artifact left after TEV cleavage; its first G is joined to the sortase peptide; LIN-42, C. elegans, residues 434-598: CK1BD + Tail without the SYQ/CK1BD-A motif; also called biotinylated CK1BD + Tail mutant, SYQ/CK1BD-A deleted; not shown: His-NusA, N-terminal, cleaved; biotin-LPETGG sortase peptide, N-terminal, kept
B3: LIN-42 CK1BD (residues 402–475) (domain or fragment, C. elegans)
chain: GAMDPEFLSYTQINCLENVHRLLKSQSRPESPAKQDEPFDEKKYPPQTPLTREALTLHTKRFEDEYKDTWCRRLKRLSDDV
notes: N-terminal vector artifact left after TEV cleavage; LIN-42, C. elegans, residues 402-475 (SYQ/CK1BD-A and LT/CK1BD-B); numbers fit the longest isoform of 598 amino acids; also called truncated fragment of LIN-42 lacking the C-terminal tail; source: E. coli Rosetta (DE3), purified (Ni-NTA, TEV cleavage, second Ni-NTA, SEC); not shown: His-NusA, N-terminal, cleaved
B4: LIN-42 CK1BD + Tail (residues 402–598) (domain or fragment, C. elegans)
chain: B1 chain
notes: N-terminal vector artifact left after TEV cleavage; LIN-42, C. elegans, residues 402-598 (CK1BD and C-terminal tail); numbers fit the longest isoform of 598 amino acids; also called wild-type LIN-42 CK1BD + Tail; source: E. coli Rosetta (DE3), purified (Ni-NTA, TEV cleavage, second Ni-NTA, SEC); not shown: His-NusA, N-terminal, cleaved
B5: LIN-42 CK1BD-∆A + Tail (residues 434–598) (domain or fragment, C. elegans)
chain: B2 chain
notes: N-terminal vector artifact left after TEV cleavage; LIN-42, C. elegans, residues 434-598: CK1BD + Tail without the SYQ/CK1BD-A motif; source: E. coli Rosetta (DE3), purified (Ni-NTA, TEV cleavage, second Ni-NTA, SEC); not shown: His-NusA, N-terminal, cleaved

Columns and labels:
[1] = biological target: T1, human CK1δ kinase domain (CK1δ ΔC, residues 1–317) (human, UniProt P48730 1-317); test: pull-down; magnetic streptavidin beads hold biotinylated LIN-42 CK1BD + Tail WT or mutants (5 µM), with and without CK1δ ΔC (5 µM); conditions: both partners purified
T1 construct: N-terminal vector artifact left after TEV cleavage; human casein kinase 1 delta, catalytic domain, residues 1-317; also called CK1δ∆C; source: E. coli Rosetta (DE3), purified (Ni-NTA, TEV cleavage, GST column, SEC); not shown: His-GST, N-terminal, cleaved
T1 sequence: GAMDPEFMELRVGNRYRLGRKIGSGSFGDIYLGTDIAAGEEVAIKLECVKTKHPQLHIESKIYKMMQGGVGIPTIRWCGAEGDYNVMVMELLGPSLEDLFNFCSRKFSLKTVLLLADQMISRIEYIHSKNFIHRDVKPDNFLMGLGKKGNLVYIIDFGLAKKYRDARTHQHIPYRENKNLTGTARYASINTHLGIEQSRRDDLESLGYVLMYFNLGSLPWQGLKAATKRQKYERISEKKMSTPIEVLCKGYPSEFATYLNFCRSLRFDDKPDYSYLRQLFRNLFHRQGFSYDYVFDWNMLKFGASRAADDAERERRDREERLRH

[2] = biological target: T2, biotinylated human CK1δ kinase domain (CK1δ ΔC, residues 1–317) (human, UniProt P48730 1-317, biotin on the N-terminus (Sortase A reaction of biotin-LPETGG with the N-terminal G of GAMDPEF)); test: BLI; biotinylated CK1δ ΔC immobilised on streptavidin biosensors, LIN-42 fragments titrated; SEC buffer (50 mM Tris pH 7.5, 200 mM NaCl, 1 mM EDTA, 5% glycerol, 1 mM TCEP, 0.05% Tween-20) with 7.5 mM BSA as printed; Octet-RED96e; kinetic analysis, 2:1 heterogeneous ligand binding model, global fit; conditions: both partners purified
T2 construct: N-terminal vector artifact left after TEV cleavage; its first G is joined to the sortase peptide; human casein kinase 1 delta, catalytic domain, residues 1-317; After the sortase reaction the N-terminus should read biotin-LPET-GAMDPEF-; also called biotinylated CK1; not shown: His-GST, N-terminal, cleaved; biotin-LPETGG sortase peptide, N-terminal, kept
T2 sequence: T1 sequence

Binder | binding result [1] | Kd [2] [nM]
B1 | binds | 
B2 | binds | 
B3 |  | 303
B4 |  | 309
B5 |  | ~3000

— PMC12624140, “A conserved chronobiological complex times C. elegans development” (The EMBO Journal, 2025)
